In US12514920B1, “Respiratory syncytial virus mRNA vaccine, and preparation method therefor and use thereof” (Hangzhou Tianlong Pharmaceutical Co., Ltd., priority 2024, dated 2026):
Positions count from the first letter of the chain named.

B1: YK-RSV-018 (protein)
chain: QNITEEFYCSTCSAVSKGYLGALRTGWYTSVITIELSNIKENKCNGTDAKVKLIKQELDKYKNAVTDLQLLMQSTPATGSGSAICSGVAVSKVLHLEGEVNKIKSALLSTNKAVVSLSNGVSVLTFKVLDLKNYIDKQLLPIVNKQSCSIPNIEIVIEFQQKNNRLLEITREFSVNAGVTTPVSTYMLTNSELLSLINDMPITNDQKKLMSNNVQIVRQQSYSIMSIIKEEVLAYVVQLPLYGVIDTPCWKLHTSPLCTTNTKEGSNICLTRTDRGWYCDNAGSVSFFPQAETCKVQSNRVFCDTMNSRTLPSEVNLCNVDIFNPKYDCKIMTSKTDVSSSVITSLGAIVSCYGKTKCTASNKNRGIIKTFSNGCDYVSNKGVDTVSVGNTLYCVNKQEGQSLYVKCEPIINFYDPLVFPSSEFDASISQVNEKINQSLAFIRKSDELLHNVNAGKSTTNIMITTIIIVIIVILLSLIAVGLLLY
B2: YK-RSV-022 (protein)
chain: QNITEEFYQSTCSAVSKGYLGALRTGWYTSVITIELSNIKENKCNGTDAKVKLIKQELDKYKNAVTDLQLLMQSTPACGSGSACASGVAVSKVLHLEGEVNKIKSALLSTNKAVVSLSGCGVSVLTFKVLDLKNYIDKQLLPIVNKQSCSIPNIETVIEFQQKNNRLLEITREFSVNAGVTTPVSTYMLTNSELLSLINDMPITNDQKKLMSNNVQIVRQQSYSIMSIIKEEVLAYVVQLPLYGVIDTPCWKLHTSPLCTTNTKEGSNICLTRTDRGWYCDNAGSVSFFPQAETCKVQSNRVFCDTMNSRTLPSEVNLCNVDIFNPKYDCKIMTSKTDVSSSVITSLGAIVSCYGKTKCTASNKCRGIIKTFSNGCDYVSNKGVDTVSVGNTLYYVNKQEGQSLYVKGEPIINFYDPLVFPSSEFDASISQVNEKINQSLAFIRKSDELLHNVNAGKSTTNIMITTIIIVIIVILLSLIAVGLLLY
B3: YK-RSV-031 (protein)
chain: B1 chain with F7C, C9Q, C85A, V143L, I155T, C394Y, Y404C, C407G, S422D
B4: YK-RSV-033 (protein)
chain: B1 chain with C9Q, T11C, C85A, V143L, I155T, C394Y, S422D
B5: YK-RSV-041 (protein)
chain: B1 chain with C9Q, S16C, C85A, V143L, I155T, S255C, C394Y, C407G, S422D
B6: YK-RSV-042 (protein)
chain: B1 chain with C9Q, Y19C, C85A, V143L, I155T, S255C, C394Y, C407G, S422D
B7: YK-RSV-053 (protein)
chain: B1 chain with C9Q, V143L, I155T, Y242C, C394Y, C407G, S422D

System: RSV pre-F antibody (3C12)
Test: Binding of epitope Φ of RSV F antigen mutants by flow cytometry
Conditions: binding rate, flow cytometry, 293T cells 16 h after mRNA-LNP transfection
Excerpt: (§1) To investigate whether the RSV F antigen mutants have pre-fusion epitopes, an RSV pre-F antibody (3C12) (specifically binding to the RSV pre-F epitope […]) and an RSV F antibody (11A9) (binding to pre-F and post-F epitopes II) were detected by flow cytometry in this example, and RSV F protein mutants in the pre-F conformation were expected to bind to the antibodies tested.
(§2) • 293T cells (purchased from ATCC cell bank); RSV pre-F antibody (3C12), epitope […] (Novoprotein, Cat. No.: DA101); RSV F antibody (11A9), epitope II (Novoprotein, Cat. No.: DA091); • experimental groups: mRNA vaccines corresponding to the expressed antigens in Example 3;
(§3) • (1) Cell transfection: 293T cells were seeded at 1.3×10^5 cells/well in a 24-well plate. The next day, mRNA-LNP samples (containing 300 ng of mRNA) were added directly to the cells, and the mixture was uniformly mixed. • (2) Cell collection: The cells were taken out of the incubator after 16 h of transfection, the medium was pipetted off, 500 μL of 0.1% BSA solution was pipetted to wash the medium remaining in the well plate, taking care not to resuspend the cells, and the 0.1% BSA solution was pipetted off. 500 μL of 0.1% BSA solution was added to each well, and the cells were pipetted and transferred to a 1.5 mL centrifuge tube. • (3) Centrifugation: The cells were harvested by centrifugation at 400 g for 5 min at 4° C. in the dark, and the supernatant was discarded. • (4) Straining: 50.6 μL of RSV fluorescent antibody diluent was added to each of the control sample and the test samples to resuspend the cells, and the samples were incubated at 4° C. for 2 h in the dark. • (5) Cleaning: After the incubation was completed, 500 μL of 0.1% BSA solution was added to each tube, the cells were harvested by centrifugation at 400 g for 5 min at 4° C. in the dark, and the supernatant was discarded. This operation was repeated three times. • (6) Resuspension of cells: 200 μL of 0.1% BSA solution was added to each sample, and the cells were carefully pipetted to prepare a cell suspension. • (7) Detection on flow cytometer: The […] of RSV F mutants to antibodies were measured using flow cytometry, with 1×10^4 cells detected in each measurement.
(§4) The RSV pre-F antibody (3C12) used in this example specifically binds to the RSV pre-F epitope Φ, and the RSV F antibody (11A9) binds to the pre-F and post-F epitopes II. Whether the pre-fusion conformations of the RSV F mutants are stable can be further determined by detecting the binding of the epitope Φ and the epitope II on the mutants to corresponding epitopes of antibodies 3C12 and 11A9, respectively, by flow cytometry.

| Molecule | RSV pre-F antibody (3C12) Epitope Φ (%) |
| --- | --- |
| B1 | 68.4% |
| B2 | 0.2% |
| B3 | 75.5% |
| B4 | 72.0% |
| B5 | 73.7% |
| B6 | 49.8% |
| B7 | 40.0% |

Same assay, conditions: ratio of epitope Φ (3C12) to epitope II (11A9) binding rate

| Molecule | Φ/II (%) |
| --- | --- |
| B1 | 89.6% |
| B2 | 9.5% |
| B3 | 90.5% |
| B4 | 87.4% |
| B5 | 90.4% |
| B6 | 81.5% |
| B7 | 59.7% |

System: RSV F antibody (11A9)
Test: Binding of epitope II of RSV F antigen mutants by flow cytometry
Conditions: binding rate, 293T cells 16 h after mRNA-LNP transfection
Excerpt: as §1, §2, §3, §4

| Molecule | RSV F antibody (11A9) Epitope II (%) |
| --- | --- |
| B1 | 76.3% |
| B2 | 2.1% |
| B3 | 83.4% |
| B4 | 82.4% |
| B5 | 81.5% |
| B6 | 61.1% |
| B7 | 67.0% |
